# Reference: PMC4546514
# Where “and” joins values, the source holds several entries; their conditions need not be identical. Equal entries are not always repeated. Where two headings read alike, the source gives them in different places.
# Experiments:
# [1] = target: purified recombinant Ded1p (S. cerevisiae) (UniProt P06634); assay: cross-linking
# [2] = target: purified recombinant Ded1p (S. cerevisiae) (UniProt P06634); assay: cross-linking; remark: listed apart in the source
substance,measurement,setting,value
purified recombinant Ded1p (from UniProt P06634 1-604) (natural protein; other documents disagree on this pair),stoichiometry N,[1],2 and 3
same,stoichiometry N,[2],< 5
